Experimental data reported in the domain aggregation screens of Martell et al. (2025).

Assay: soluble fraction after stress (log2 fold change); higher = more stays soluble; pooled small domains, quantitative proteomics
Settings: stress: pH 4
Summary of the method: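 Custom libraries of small protein domains were pooled and exposed to pH 4. High-throughput quantitative proteomics then measured the log2 fold change in the amount of each domain still soluble, with higher values meaning more stayed soluble. This soluble-fraction fold change stands for aggregation propensity.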

Row | Sequence | soluble fraction (log2)
1 | HMKLSLKTQVKEYLLSYIRDKKLQPGDRLLTQRELAEMLHTSQKVAQMALNSLEEEGIIIRRLGSGSFLAR | -0.227
2 | HMKLTKPQEVFIQELLKGSSQYEAYLKAYPSKKTWKRNSIDTEASKLFKNAKIKQRYEELLYNIREE | -0.175
3 | HMKLTNNDFIRLKTFMYNNYGINLENKKTLIETRLAIVVKRLGFNDFKSYIDNLMRDKTGEQASIIVGKLT | -0.141
4 | HMKLTPKQQQIYDFISSFADEHGYPPSVREIAQAVNLKSPATVHFHLKGLREAGYISQAEGKTRAITI | -0.136
5 | HMKMDGESQRLLSLIKEQGGSLPIGDKSSPEAIYRLTQMSKKTFKMALGSLYKAKQVVLSPTEVRL | 0.0519
6 | HMKMNFNEEEQKLLSEANVLVETNKTYTDDEVKGFSNKIVEHIMTFSKTDIPKVKSKFDPILFKI | -0.745
7 | HMKMTIEDLITQAKESNAAENYYEAFQLYSKAIDVLPNDPDLYSARGVVLFHLDRKEDSLIDMNKSVD | -0.879
8 | HMKMVEIDYGKFLTMLDTGKVKSVEIENNRIAINPSSSKDKNIYITGRMDDPELVDRLKNAKVEFTKVIP | -0.0394
9 | HMKNAYDLKMLVKDNDGNIERNMKYYFFLANGSKVEGITDDNGYTKTITTIQPEKADLHLINDELI | -0.0557
10 | HMKNDIQLKHDVEEELQWDPAVDASRFAVQAKDGVVTLSGGVDTFADKHAAEEAIRRVAGVTALVIHVDV | -0.271
11 | HMKNEFRVYPNPANKEIVTFNQTQDIEVYDTLGKLVLKAKNTNTLDTKSFHSGIYFIKTGSGLTRKLVV | ≥ 0.43
12 | HMKNEQESIAQKLYEAALKNDFVTIQEIQSGGYRLRNDDLTHMRESGVQSNTLIAIQKIFGL | -0.578
13 | HMKNEQIFIVRPDAEGTRLDQWLAAQMASSEEAPSRMQIQRWIKAGLVEGQGTLNPARRIEAGESYTVKPG | 0.203
14 | HMKNEYAMVIQVNGKLRGNMLVSADLEQKDIERMALDNEDIKRFISHENDVKKMIFVPKKLINIVT | ≥ 0.43
15 | HMKNIFDWLKQINYHKQPADSFTEKDWELFNSYMVHRFMSMNREFIEVVNYVQEMPPQEKILIYNIYREF | 0.25
16 | HMKNIINFIVKEDDNNKRVDMILANHDKSLSRTRVKNLILDSKLKINERIVQDPSIKTKLNDKIELEIVEP | 0.251
17 | HMKNIINLVIDGELHGKRIDAVIAQKNDSLSRTRIKNLVINGNLSINDEIVSDPSKKIYKDDKVSLTIPLP | -0.085
18 | HMKNIMRQWIELEPDQGKIRSKLYSLDRVVEETTNEVGMIKLLLEIDEKELNNLVSHNDIRLV | -0.625
19 | HMKNIRKQAIEAIDRIKNGNPIVISKNAKLIFKNIAKEANVSPTELHREFRDVMLYVNSLKAP | 0.271
20 | HMKNKVTVPKVEGMDKEEAIQALNEVGLGYKAVMQSSDSVAEGKVISQGTAAGKKVDKNTQIIITVSGG | ≥ 0.43
21 | HMKNLADNIVALRKKHGLSQEQFAEKIDVTRQAVSNWERRIATPDVETIDLIAKLFDTDLTALVNG | -0.129
22 | HMKNLKLVSNTDGIRIDSWLADEFEDYSRSYLRKLIDQDLVYVNGNKIKANYKLKKGDEISISIPEPE | -0.259
23 | HMKNLTERQQQIIALISGNPLITRAEIASAIGFSVKTIERELSILSEIVSYVGSKKGGHWEIQT | -0.49
24 | HMKNLTERQQRIIALISENPQTTRAEIAGAIGVATKTIERELTTLSNIVYYVGPKKGGHWEIIK | 0.333
25 | HMKNLTEVEYSEFLESIAQDRVSKVQVDGLIIRGEMNDGQRFETVQPQVTDKALIDDMVNHRVDFSGARP | -0.726
26 | HMKNMSLGERIKEQRKSSGLSQEKVAEFVGVSRQAVTKWETGQSAPSTENLFKLAEIFGTTVDILLA | -0.0228
27 | HMKNNAIAPDQVVSLLKNEVNYNDDGRIEILDNNKNIRYNSKGELLTIEERVNEFLDANPHFRK | -0.0472
28 | HMKNSMANVQARREKILSAVDQSEPVAVEGLAQRFNVSITTLRRDLKALSDMGQVKWHHGLVERT | 0.164

Row | Sequence | soluble fraction (log2)
29 | HMKNVADEVFEKMLNMIIEGDWKKGEMIPSENELREAFSVSRSTVRQAVQRLSALGIVRSRQGKGTYVEQV | 0.0309
30 | HMKNYYELLGVAREASQDQIKKAYRKLARKYHPDVSKEADAETRMQELNVAYDTLSDAEKKREYDFQLDHP | 0.218
31 | HMKPDDDMLLKILTKLFIQKQFVINSKDIFQYILKNTNRTYENIINIVNRLDTLSIEKKRQLTIPLIKEI | -0.555
32 | HMKPEQIELTFSGTTAMRLDKFLAENQPGLSRAKLQAIISSGSVEVNGKVITKQAFKLDPGDLVKALIPE | ≥ 0.43
33 | HMKPGWEDIFRMNQIQLEDAVRTVNRDDTLAPTKKAYLIQNLLASRWIVGNQLQAQKDKTTE | -0.335
34 | HMKPGYVIQVNGTVTKIQSGLVYVKTPAAQYTLMRKYAPADAAVGDRVSLWINEEGMVIDVHGK | -0.671
35 | HMKPKDILLPNFTNLTLDEAKAKAEEVKLNLNVSEEKYDVQIEEGKIISQDPKYQPNYTVKEGSTVNVVVS | 0.0508
36 | HMKPLIIPLELMQRLSSDKQLEAGFNRFSKSKQHEFAAYIAAAKRVETKVKRLEKIIPLILSGEGLNDR | 0.333
37 | HMKPLRPVHLEIQTHRLSPVGILRSSFRQAGKVMHSNHGRITGLNLEQLKLIQAAFAGEALPK | 0.0473
38 | HMKPQIRRHEKITALVREHGFMSVEQLARELEVTPQTIRRDIGILSAENVLRRYHGGAALGD | 0.148
39 | HMKPSNLTSDERTQLLAQLKTAMGSDQYNQLRRQVGEEKLLEYVLDNVPGIQEEILGNRAVQENIDLH | -0.266
40 | HMKPSTVSVPDVSGDKLSTAKMIIRKSGLKVGDVQKIEDDNVGAGKVVRTNPSAGSKKREGSSVDIFVASA | 0.111
41 | HMKPTVKGHFTRKESNVGGYADVRGWGVAGTPSMMANQSKDTRRFSTLIVPGRSVNVHPSPTKEAIIWWQS | -0.138
42 | HMKPTVKKLLAALPELRSGQPLHLSVATRKLRDAGLLGKNASSPTLFRNYVAQFELIPENQPNAVRYR | 0.268
43 | HMKPVSEMDNMEWVREQYFQNMIYEIGEWVKDKKTGIVGEIVKRGTNYVTIVQEDFSLHKIWLEDLETTE | -0.368
44 | HMKQDYYSILGVMRDASQEEIKRAYLDAAQRLHPDRNTSAGDTEMFLDVQQAYEVLSNPKRRAQYDATLP | 0.169
45 | HMKQEFEMGLPNGVGEQMLAHAIEKFDVKLEHSEFGPKLIGTYEELEKAKVFLYEAIEARLNQLE | -0.875
46 | HMKQISNTDELETMVKKIIDDNEEQVNKYRGGNEKLFGWFVGQAMKNTGGTANPKVVNEILSKLLK | ≥ 0.43
47 | HMKQLLHLVIGGELKDVRGIEFEDLSKIDFVGAFPSYKAAYDAWKNAAQRTVDNAEMRYFILHAHR | -1.37
48 | HMKQLRVLGIVKAGSILKNSDGSIEFVIEDSGKSLLVKYKGVIPDIFKDGVEAVVEGDLRGSVFNADKLF | -0.2
49 | HMKQMNETQQKAFEIYLDSATFETDYKPISEEQLAAKLDALGLKGSSSSINRWKKDFNWAQALQNKVTLAM | -0.227
50 | HMKQQNFADLAGRFVFNADNEVVFNFGKHKNVPVATVLKNEPGYYGWMMGGDFPLFTKKILKQIKEA | -0.952
51 | HMKQTFGAMLAALRKEKGMTQLELAEQMGVTDKAVSKWERDLSFPDVTSLPRLAEILEVSVDELMQ | -0.724
52 | HMKQVNVVSVIGQSEANAKTTLTGLGLKVNVAYEEDTSKADGIVLKQSLEGGKTVNEGTTITITVNKIA | -0.567
53 | HMKQVSDTGAIDAAIREVMDANPDKVAEYRSGKDKLFGFFVGQIMRAMAGKAAPVVVNDRLKALLD | 0.32
54 | HMKQVTVGGTINAGGARIYADSYGNGGGRQTFGSDPIYTVLQERNGYILTRWHKLSSGYTGWFKKSDVSA | -0.00968
55 | HMKQYSFEISKADFKKISENFNFKIINEINDSLIISLNDKNINLDELLIFFVERKIKVRSIENI | -1.06
